Test results taken from patent US20180215829A1 (CRESCENDO BIOLOGICS, published 2018).

Tests used:
[1] = target: T1, human IL-17RA on HT1080 cells (human, UniProt Q96F46 33-866); experiment: cell-based or functional assay
T1 sequence: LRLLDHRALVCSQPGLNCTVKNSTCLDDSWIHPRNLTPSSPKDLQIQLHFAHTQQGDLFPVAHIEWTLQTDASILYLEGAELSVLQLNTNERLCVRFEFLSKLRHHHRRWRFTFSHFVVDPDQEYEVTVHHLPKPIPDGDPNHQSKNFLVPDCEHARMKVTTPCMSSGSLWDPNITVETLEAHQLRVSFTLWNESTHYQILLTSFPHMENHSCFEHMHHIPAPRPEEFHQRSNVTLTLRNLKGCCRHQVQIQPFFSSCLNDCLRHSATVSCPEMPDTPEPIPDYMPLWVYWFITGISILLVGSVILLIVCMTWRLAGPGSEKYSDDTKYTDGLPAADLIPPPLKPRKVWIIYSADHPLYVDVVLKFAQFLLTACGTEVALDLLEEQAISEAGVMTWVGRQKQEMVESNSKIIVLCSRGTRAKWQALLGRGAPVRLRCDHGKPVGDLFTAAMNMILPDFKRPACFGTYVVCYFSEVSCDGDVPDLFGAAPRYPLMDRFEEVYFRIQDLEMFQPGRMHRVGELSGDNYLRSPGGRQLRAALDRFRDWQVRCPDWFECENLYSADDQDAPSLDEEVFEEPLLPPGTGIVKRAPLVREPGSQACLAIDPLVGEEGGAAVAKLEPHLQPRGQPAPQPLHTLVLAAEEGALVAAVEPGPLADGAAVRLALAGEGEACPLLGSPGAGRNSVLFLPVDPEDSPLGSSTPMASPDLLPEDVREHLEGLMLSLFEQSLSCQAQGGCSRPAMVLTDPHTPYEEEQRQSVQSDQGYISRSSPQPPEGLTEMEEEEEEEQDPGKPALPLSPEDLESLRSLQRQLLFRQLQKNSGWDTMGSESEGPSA

[2] = target: T2, recombinant human IL-17RA Fc fusion protein (R&D Systems 177-IR-100) (human, UniProt Q96F46 33-320); experiment: affinity against parent clone 2.1; method not given
T2 construct: Bought protein; not shown: Fc domain of human IgG1
T2 sequence: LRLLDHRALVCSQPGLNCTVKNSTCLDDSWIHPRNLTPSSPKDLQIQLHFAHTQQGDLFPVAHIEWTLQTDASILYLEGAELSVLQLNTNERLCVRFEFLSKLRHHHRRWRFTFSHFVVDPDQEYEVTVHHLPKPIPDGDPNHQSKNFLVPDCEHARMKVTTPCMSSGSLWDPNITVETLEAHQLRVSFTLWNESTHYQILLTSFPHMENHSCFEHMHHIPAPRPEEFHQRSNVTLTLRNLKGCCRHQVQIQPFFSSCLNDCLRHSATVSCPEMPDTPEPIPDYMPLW

[3] = target: T1, human IL-17RA on HT1080 cells; experiment: cell-based or functional assay; remark: listed apart in the source
[4] = target: T2, recombinant human IL-17RA Fc fusion …; experiment: receptor/ligand biochemical inhibition ELISA: VH competes with 1 nM IL-17A for coated IL-17RA-Fc
Description: VH, both purified and crude periplasmic extracts, were also tested for their ability to inhibit the interaction of IL-17A with recombinant IL-17RA-Fc. […] Following washing of excess coating antigen, as described above, the wells of the plate were incubated with 3% Marvel/PBS to block non-specific protein interactions. VH preparations, crude periplasmic extracts or purified VH, or suitable controls, were prepared with 1 nM recombinant IL-17A (Peprotech, cat# AF-200-17) in 3% skimmed milk powder/PBS solution in polypropylene plates or tubes. The mixture was then transferred to the assay plate and incubated for 1 hour at room temperature. Excess protein was removed by washing and bound IL-17A was detected by incubation with biotinylated anti-IL-17A Mab (R & D Systems, cat BAF317) followed by the addition of neutravidin-HRP (Pierce, cat#31030) and TMB substrate (Sigma, cat# T0440). The TMB reaction was stopped by addition of 0.5M H₂SO₄ and absorbances were measured at 450 nm in a plate reader.

[5] = target: T2, recombinant human IL-17RA Fc fusion …; experiment: BIAcore T200 single-cycle kinetics, IL-17RA-Fc captured on protein G chip, VH as analyte
Description: Binding kinetics of anti-IL-17RA VH antibodies were measured on a BIAcore® T200 instrument. For IL-17RA, first a protein G chip was prepared by diluting protein G to 20 ug/ml in acetate buffer, pH 4 (BIAcore®, cat# BR-100-49) and then coupled 1200 RU to a CM5 Series S chip using amine coupling chemistry. This surface was then used to capture IL-17RA Fc fusion protein from solution: IL-17RA at 10 ug/ml in HBS injected for 10 seconds at 30 ul/min flow rate would capture approximately 100-150 RU of IL-17RA onto the protein G surface.
Binding kinetics of anti-IL-17RA VH antibodies were determined by single-cycle kinetics. VH antibodies were prepared in dilution series (typically 1:3 dilution series starting with 100 nM VH at the highest concentration), and then injected over the antigen coated surfaces and also a blank surface, starting with the lowest concentration of VH and then working progressively up to the highest concentration. VH binding kinetics were then determined from the (blank subtracted) sensorgram traces using 1:1 binding models and BIAevaluation software.

B1: VH clone 2.2 (VHH)
VHH: QVQLVQSGAEVKKPGASVKVSCKASGYPFTSYDINWVRQATGRSLEWMGWMNPTNGNTVYAQKFQDRVTMTRNTSISTAYMELSSLRSEDTAVYFCARGRRDDWKNNYWGQGTLVTVSS
notes: Human VH single domain antibody, no light chain; Optimised variant of clone 2.1; also called VH 2.2
IC50 (nM), cell-based assay [1]: 165 nM | fold improvement in affinity against clone 2.1 [2]: 10 fold | Cell assay IC50 [3]: 61 nM | IC50 [4]: 1.4 nM | Kd [5]: 1.4 nM | koff [5]: 0.000799 s⁻¹ | kon [5]: 579000 M⁻¹ s⁻¹
